Biological target: T1, ARG2 (Homo sapiens, UniProt P78540)
T1 sequence (P78540 23-354): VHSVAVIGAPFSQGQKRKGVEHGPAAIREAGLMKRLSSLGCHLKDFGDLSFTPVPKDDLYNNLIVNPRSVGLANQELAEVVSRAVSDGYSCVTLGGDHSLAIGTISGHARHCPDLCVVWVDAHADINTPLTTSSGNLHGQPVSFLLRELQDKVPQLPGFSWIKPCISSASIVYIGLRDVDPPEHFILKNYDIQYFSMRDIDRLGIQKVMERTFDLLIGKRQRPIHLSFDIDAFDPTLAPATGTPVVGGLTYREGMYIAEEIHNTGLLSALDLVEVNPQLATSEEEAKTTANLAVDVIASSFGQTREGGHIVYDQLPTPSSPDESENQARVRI
Assay: Size-exclusion chromatography of ARG2-Fab binding stoichiometry
Design: human ARG2 (aa23-354); His10 (C); made in house; host or cells: E. coli BL21 (DE3)
Settings: FIG. 23A
Description: ARG2 and Fabs were analysed at concentrations of 8 μM (referring to monomers) in SEC buffer containing 25 mM tris at pH 7.4 and 150 mM NaCl. ARG2-Fab complexes were formed by mixing both ARG2 and Fabs at concentrations of 8 μM (referring to monomers) in SEC buffer and incubation on ice for 1 h. For size-exclusion chromatography, […] of sample were injected into a 100 μl loop connected to a Superose 6 Increase 10/300 GL column (GE Healthcare) which was mounted to an AKTAexpress FPLC system (GE Healthcare). The column was equilibrated in SEC buffer, and SEC was performed at a flow rate of 0.5 ml/min. Molecular-weight estimates are based on the retention volumes seen for β-amylase, bovine serum albumin and carbonic anhydrase, which were analysed on the same FPLC system under identical conditions.

- size-exclusion peak of 1:1 molar mixture of ARG2 and Fab (8 μM each): 275 kDa
- Fabs bound to one ARG2 trimer (from size-exclusion profile): three Fabs
B1: C0021139: anti-ARG2 antibody, VH SEQ ID NO: 212, VL SEQ ID NO: 217 (antibody, listed as Homo sapiens, V domains shown)
VH: EVQLLESGGGLVQPGGSLRLSCAASGFTFQYDYQVWVRQAPGKGLEWVSAISGSGGSTYYADSVKGRFTISRDNSKNTLYLQMNSLRAEDTAVYYCARLRADLGLYMDLWGRGTLVTVSS
VL: QSVLTQPPSVSAAPGQKVTISCSGSSSNIGNHYVSWYQQLPGTAPKLLIYDNSERTSGIPDRFSGSKSGTSATLGITGLQTGDEADYYCGTWDELTSNLVFGGGTKLTVL
modifications: C0021139

Reference: patent US20220403048A1, “BINDING MOLECULES TO ARGINASE II [ARG2]” (Cancer Research Technology Limited, priority 2019, published 2022)
